Laboratory results reported in publication PMC13397619.

B1: NLV3 TCR beta chain (CDR3β only) (parent)
chain: ASSPTGGSPSPLH

Variants of: B1
Test: T-Switch: Jurkat TCRβ−/− cells expressing a CDR3 saturation-mutagenesis library, stained with two peptide-HLA-A*02:01 tetramers (original and novel peptide) plus anti-CD3, FACS-sorted into four gates, gDNA sequenced
Settings: tetramers 1 µg/mL, 30 min on ice, SP, DP and SW gates expanded about 10 days between rounds ('two to three rounds of selection' in the Methods), unresolved parent, parent is a CDR3 fragment, scale: fold enrichment, numbering: sequential-on-construct, sequence starts at 1
[1] = with both tetramers (double-negative gate, binds neither): HLA-A*02:01 with … and with …, gate DN: OPPOSITE: higher = more of the variant in the gate that binds neither peptide = LESS binding (or no expression; inferred). Fold enrichment of the CDR3 variant in one FACS gate of a two-tetram
[2] = with both tetramers (double-positive gate): HLA-A*02:01 with … and with …, gate DP: higher = more of the variant in the gate that binds both peptides. Fold enrichment of the CDR3 variant in one FACS gate of a two-tetramer stain. SP/DP/SW gates were expanded and re-sorted bef

| Variant | enrichment [1] | enrichment [2] |
| --- | --- | --- |
| […] (CDR3 as printed); G7I derived by comparing it with the table's wild-type CDR3 ASSPTGGSPSPLH | 1.05 | 0 |
| […] (CDR3 as printed); A1C derived by comparing it with the table's wild-type CDR3 ASSPTGGSPSPLH | 1.24 | 0 |
| […] (CDR3 as printed); T5G derived by comparing it with the table's wild-type CDR3 ASSPTGGSPSPLH | 0.828 | 0 |
| […] (CDR3 as printed); G6Y derived by comparing it with the table's wild-type CDR3 ASSPTGGSPSPLH | 0.661 | 0 |
| […] (CDR3 as printed); G7M derived by comparing it with the table's wild-type CDR3 ASSPTGGSPSPLH | 0.978 | 0 |
| […] (CDR3 as printed); P9C derived by comparing it with the table's wild-type CDR3 ASSPTGGSPSPLH | 0.869 | 0 |
| […] (CDR3 as printed); G7Y derived by comparing it with the table's wild-type CDR3 ASSPTGGSPSPLH | 0.917 | 0 |
| […] (CDR3 as printed); H13F derived by comparing it with the table's wild-type CDR3 ASSPTGGSPSPLH | 0.541 | 0 |
| […] (CDR3 as printed); L12Q derived by comparing it with the table's wild-type CDR3 ASSPTGGSPSPLH | 0.615 | 0 |
| […] (CDR3 as printed); S3V derived by comparing it with the table's wild-type CDR3 ASSPTGGSPSPLH | 0.951 | 0 |
| […] (CDR3 as printed); S2T derived by comparing it with the table's wild-type CDR3 ASSPTGGSPSPLH | 0.755 | 0 |
| […] (CDR3 as printed); H13P derived by comparing it with the table's wild-type CDR3 ASSPTGGSPSPLH | 1 | 0 |
| […] (CDR3 as printed); S3L derived by comparing it with the table's wild-type CDR3 ASSPTGGSPSPLH | 0.942 | 0 |
| […] (CDR3 as printed); S8Y derived by comparing it with the table's wild-type CDR3 ASSPTGGSPSPLH | 0.351 | 0 |
| […] (CDR3 as printed); L12Y derived by comparing it with the table's wild-type CDR3 ASSPTGGSPSPLH | 1.11 | 0 |
| […] (CDR3 as printed); P11C derived by comparing it with the table's wild-type CDR3 ASSPTGGSPSPLH | 0.758 | 0 |
| […] (CDR3 as printed); G7W derived by comparing it with the table's wild-type CDR3 ASSPTGGSPSPLH | 1.22 | 0 |
| […] (CDR3 as printed); P4Y derived by comparing it with the table's wild-type CDR3 ASSPTGGSPSPLH | 0.624 | 0 |
| […] (CDR3 as printed); S3I derived by comparing it with the table's wild-type CDR3 ASSPTGGSPSPLH | 1.21 | 0 |
| […] (CDR3 as printed); H13N derived by comparing it with the table's wild-type CDR3 ASSPTGGSPSPLH | 0.56 | 0 |

| Variant | enrichment [1] | enrichment [2] |
| --- | --- | --- |
| […] (CDR3 as printed); P4K derived by comparing it with the table's wild-type CDR3 ASSPTGGSPSPLH | 0.891 | 0 |
| […] (CDR3 as printed); A1Q derived by comparing it with the table's wild-type CDR3 ASSPTGGSPSPLH | 0.998 | 0 |
| […] (CDR3 as printed); S8I derived by comparing it with the table's wild-type CDR3 ASSPTGGSPSPLH | 1.23 | 0 |
| […] (CDR3 as printed); P4R derived by comparing it with the table's wild-type CDR3 ASSPTGGSPSPLH | 0.618 | 0 |
| […] (CDR3 as printed); H13T derived by comparing it with the table's wild-type CDR3 ASSPTGGSPSPLH | 0.524 | 0 |
| […] (CDR3 as printed); L12H derived by comparing it with the table's wild-type CDR3 ASSPTGGSPSPLH | 0.844 | 0 |
| […] (CDR3 as printed); G6A derived by comparing it with the table's wild-type CDR3 ASSPTGGSPSPLH | 0.582 | 0 |
| […] (CDR3 as printed); S2V derived by comparing it with the table's wild-type CDR3 ASSPTGGSPSPLH | 0.992 | 0 |
| […] (CDR3 as printed); A1W derived by comparing it with the table's wild-type CDR3 ASSPTGGSPSPLH | 0.805 | 0 |
| […] (CDR3 as printed); A1E derived by comparing it with the table's wild-type CDR3 ASSPTGGSPSPLH | 1.07 | 0 |
| […] (CDR3 as printed); P11G derived by comparing it with the table's wild-type CDR3 ASSPTGGSPSPLH | 1.17 | 0 |
| […] (CDR3 as printed); A1M derived by comparing it with the table's wild-type CDR3 ASSPTGGSPSPLH | 1.12 | 0 |
| […] (CDR3 as printed); P4M derived by comparing it with the table's wild-type CDR3 ASSPTGGSPSPLH | 0.718 | 0 |
| […] (CDR3 as printed); S3F derived by comparing it with the table's wild-type CDR3 ASSPTGGSPSPLH | 0.989 | 0 |
| […] (CDR3 as printed); S10P derived by comparing it with the table's wild-type CDR3 ASSPTGGSPSPLH | 1.37 | 0 |
| […] (CDR3 as printed); L12A derived by comparing it with the table's wild-type CDR3 ASSPTGGSPSPLH | 1.68 | 0 |
| […] (CDR3 as printed); S3H derived by comparing it with the table's wild-type CDR3 ASSPTGGSPSPLH | 0.931 | 0 |
| […] (CDR3 as printed); H13S derived by comparing it with the table's wild-type CDR3 ASSPTGGSPSPLH | 0.978 | 0 |
| […] (CDR3 as printed); H13A derived by comparing it with the table's wild-type CDR3 ASSPTGGSPSPLH | 0.498 | 0 |
| […] (CDR3 as printed); S10F derived by comparing it with the table's wild-type CDR3 ASSPTGGSPSPLH | 1.25 | 0 |

| Variant | enrichment [1] | enrichment [2] |
| --- | --- | --- |
| […] (CDR3 as printed); H13G derived by comparing it with the table's wild-type CDR3 ASSPTGGSPSPLH | 0.702 | 0 |
| […] (CDR3 as printed); S10Q derived by comparing it with the table's wild-type CDR3 ASSPTGGSPSPLH | 0.571 | 0 |
| […] (CDR3 as printed); A1F derived by comparing it with the table's wild-type CDR3 ASSPTGGSPSPLH | 0.897 | 0 |
| […] (CDR3 as printed); S10T derived by comparing it with the table's wild-type CDR3 ASSPTGGSPSPLH | 1.08 | 0 |
| […] (CDR3 as printed); S10E derived by comparing it with the table's wild-type CDR3 ASSPTGGSPSPLH | 1.41 | 0 |
| […] (CDR3 as printed); T5L derived by comparing it with the table's wild-type CDR3 ASSPTGGSPSPLH | 0.514 | 0 |
| […] (CDR3 as printed); G6H derived by comparing it with the table's wild-type CDR3 ASSPTGGSPSPLH | 1.05 | 0 |
| […] (CDR3 as printed); G7K derived by comparing it with the table's wild-type CDR3 ASSPTGGSPSPLH | 1.36 | 0 |
| […] (CDR3 as printed); A1G derived by comparing it with the table's wild-type CDR3 ASSPTGGSPSPLH | 0.451 | 0 |
| […] (CDR3 as printed); G7N derived by comparing it with the table's wild-type CDR3 ASSPTGGSPSPLH | 0.87 | 0 |
| […] (CDR3 as printed); P9G derived by comparing it with the table's wild-type CDR3 ASSPTGGSPSPLH | 1.21 | 0 |
| […] (CDR3 as printed); S2N derived by comparing it with the table's wild-type CDR3 ASSPTGGSPSPLH | 0.879 | 0 |
| […] (CDR3 as printed); S3W derived by comparing it with the table's wild-type CDR3 ASSPTGGSPSPLH | 0.749 | 0 |
| […] (CDR3 as printed); S8F derived by comparing it with the table's wild-type CDR3 ASSPTGGSPSPLH | 0.97 | 0 |
| […] (CDR3 as printed); S2Y derived by comparing it with the table's wild-type CDR3 ASSPTGGSPSPLH | 0.769 | 0 |
| […] (CDR3 as printed); T5M derived by comparing it with the table's wild-type CDR3 ASSPTGGSPSPLH | 0.479 | 0 |
| […] (CDR3 as printed); T5H derived by comparing it with the table's wild-type CDR3 ASSPTGGSPSPLH | 0.879 | 0 |
| […] (CDR3 as printed); P11Y derived by comparing it with the table's wild-type CDR3 ASSPTGGSPSPLH | 0.787 | 0 |
